# Measured values: the nanobody polyreactivity screen of Harvey et al. (2022)
# Experiment: yeast display, Sf9 membrane polyspecificity reagent, FACS + sequencing; frameworks hold sequencing errors
# Method in brief: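 Galactose induction of a Saccharomyces cerevisiae BJ5465 synthetic nanobody display library ran 36–48 hours. The cells were then stained for 1 hour at 4 °C with 10% biotinylated, detergent-solubilized Sf9 membrane reagent, pulled down on streptavidin microbeads and FACS-sorted into low and high (top ~1%) gates on expression and reagent-binding fluorescence. Labels for polyreactivity follow the gate of origin.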
row,Sequence,polyreactivity (PSR sort gate)
1,QVQLVESGGGLVQAGGSLRLSCAASGSTLNDYTMGWYRQAPGKERELVAAIRVSGARTFYADSVKGRFTISRDNAKNTVYLQMNSLKPEDTAVYYCAARWYIANPLSPSDYWGQGTQVTVSS,low polyreactivity
2,QVQLVESGGGLVQAGGSLRLSCAASGSTLNIYAMGWYRQAPGKERELVAAISWTDDTTYYADSVKGRFTISRDNAKNTVYLQMNSLKPEDTAVYYCAAEIYSWSDAQQYDYWGQGTQVTVSS,high polyreactivity
3,QVQLVESGGGLVQAGGSLRLSCAASGSTLNLYAMGWYRQAPGKEREVVAGITGGGSSTYYADSVKGRFTISRDNAKNTVYLQMNSLKPEDTAVYYCNVEPGYYYYRHWVAYSHGYGYWGQGTQVTVSS,low polyreactivity
4,QVQLVESGGGLVQAGGSLRLSCAASGSTLNSYAMGLYRQAPGKDRELVAAISWSGGSTYYADSVKGRFSISRDNAKNTVYLQMNSVKAEDTAVYYCNAAFWWDYAYGVDYWGQGTQVTVSS,low polyreactivity
5,QVQLVESGGGLVQAGGSLRLSCAASGSTLNSYVMGWYRQAPGKERELVATIRSGSSTNYADSVKGRFTISRDNAKNTVYLQMNSLKPEDTAVYYCAADAYSLCYDSWGQGTQVTVSS,low polyreactivity
6,QVQLVESGGGLVQAGGSLRLSCAASGSTLPAYTMAWYRQAPGKERELVAAISYRGGSTYYADSVKGRFTISRDNAKNTVYLQMNSLKPEDTAVYYCAAVYSVAYASTHYRIYDYWGQGTQVTVSS,high polyreactivity
7,QVQLVESGGGLVQAGGSLRLSCAASGSTLPGNVMGWYRQAPGKERELVAAISWTGGSTYYADSVKGRFTISRDNAKNTVYLQMNSLKPEDTAVYYCAVDAYESPWWSDPYEYWGQGTQVTVSS,low polyreactivity
8,QVQLVESGGGLVQAGGSLRLSCAASGSTLPRYTMGWYRQAPGKERELVAAISFSGSSTYYADSVKGRFTISRDNAKNTVYLQMNSMKPEDTSVYYCRYGYNYWGQGTQVTVSS,high polyreactivity
9,QVQLVESGGGLVQAGGSLRLSCAASGSTLQRYAMGWYRQAPGKERELVAAISSGGRTYYADSVKGRFTISRDNAKNTVYLQMNRLKPEDTAVYYCAAVLPARSEPVRYYYWGQGTQVTVSS,high polyreactivity
10,QVQLVESGGGLVQAGGSLRLSCAASGSTLRDYVMGWYRQAPGKERELVAAITSRVDDTYYADSVKGRFTISRDNAKNTVYLQMNSLKPEDTAVYDCAADYSVTLRIGGYYWFYAFDYWGQGTQVTVSS,low polyreactivity
11,QVQLVESGGGLVQAGGSLRLSCAASGSTLRGYTMGWYRQAPGKERELVAAISWSGASTYYADSVKGRFTISRDNAKNTVYLQMNSLKPEDTAVYYCNRAGRYVREYTVDYWGQGTQVTVSS,high polyreactivity
12,QVQLVESGGGLVQAGGSLRLSCAASGSTLRPYGMGWYRQAPGKERELVATIRSSSGRTYYADSVKGRFTISRDNAKNTVYLQMNSLKPEDTAVYYCARRYITNIKYDYWGQGTQVTVSS,high polyreactivity
13,QVQLVESGGGLVQAGGSLRLSCAASGSTLRSYTMGWYRQAPGKERELVAAITTTGRTYYADSVKGRFTISRDNAKNTVYLQMNSLKPEDTAVYYCNAVAPGKYNHWGQGTQVTVSS,high polyreactivity
14,QVQLVESGGGLVQAGGSLRLSCAASGSTLRTYAMGWYRQAPGKERELVAAISFSTTSTYYADSVKGRFTISRDNAKNTVYLQMNSLKPEDTAGYDCAAGPRTRYQPDLPGCYYSWGQGTQVTVSS,high polyreactivity
15,QVQLVESGGGLVQAGGSLRLSCAASGSTLRYNTMGWYRQAPGKERELVAAISVRGGSTYYADSVKGRFTISRDNAKNTVYLQMNSLKPEDTAVYYCARRIKLGQRQGGYYWGQGTQVTVSS,high polyreactivity
16,QVQLVESGGGLVQAGGSLRLSCAASGSTLSYYAMGWYRQAPGKERELVAAISFSGGITYYADSVKGRFTISRDNAKNTVYLQMNSLKPEDTAVYYIKAEYKVYRAYVIWYDYWGQGTQVTVSS,high polyreactivity
17,QVQLVESGGGLVQAGGSLRLSCAASGSTLSYYAMGWYRQAPGKERELVAAISSGGTTNYADSVKGRFTISRDNAKNTVYLQMNSLKPEDTAVYYCAAVRKSWWYSSEYYYWGQGTQVTVSS,low polyreactivity
18,QVQLVESGGGLVQAGGSLRLSCAASGSTLTANAMGWYRQAPGKERELVAAISSAGRTYYADSVKGRFTISRDNAKNTVYLQMNSLKPEDTAVYYCAAPYGQLFTQGTWYEYWGQGTQVTVSS,low polyreactivity
19,QVQLVESGGGLVQAGGSLRLSCAASGSTLVANAMGWYRQAPGKERELVARITSGTSTYYADSVKGRFTISRDNAKNTVYLQMNSLKPEDTAVYYCAAGRWTRRRTYDSWGQGTQVTVSS,high polyreactivity
20,QVQLVESGGGLVQAGGSLRLSCAASGSTLVGYVMGWYRQAPGKERELVAAITTVGSTYYADSVKGRFTISRDNAKNTVYLQMNSLKPEDTAVYYCAADRSDLAEEGYAGYDYWGQGTQVTVSS,low polyreactivity
21,QVQLVESGGGLVQAGGSLRLSCAASGSTLVGYVMGWYRQAPGKERELVATISRSGGSTYYADSVKGRFTISRDNAKNTVYLQMNSLKPEDTAVYYCATDLLNNVDYDYWGQGTQVTVSS,low polyreactivity
22,QVQLVESGGGLVQAGGSLRLSCAASGSTLVKYAMGWYRQAPGKERELVAAISWSGGRTYYADSVKGRFTISRDNAKNNVYLQMNSLKPEDTAVYYCAARRKAVRYDYWGQGTQVTVSS,high polyreactivity

row,Sequence,polyreactivity (PSR sort gate)
1,QVQLVESGGGLVQAGGSLRLSCAASGSTLVQYVMGWYRQAPGKERELVAAISGSGGSTYYADSVKGRFTISRDNAKNTVYLQMNSLKPEDTAVYYCAASRRSGYGYWGQGTQVTVSS,high polyreactivity
2,QVQLVESGGGLVQAGGSLRLSCAASGSTLVRKAMGWYRQAPGKERELVAAISRSGGRTYYADSVKGRFTISRDNAKNTVYLQMNSLKPEDTAVYYCARLDGFSASDHDYWGQGTQVTVSS,high polyreactivity
3,QVQLVESGGGLVQAGGSLRLSCAASGSTLVTYAMAWYRQAPGKERELVAAISGGTGTDYADSVKGRFTISRDNAKNTVYLQMNSLKPEDTAVYYCAAKSSSNKVDYYYWGQGSQVTVSS,low polyreactivity
4,QVQLVESGGGLVQAGGSLRLSCAASGSTLVYNDMGWYRQAPGKEREFVAAIRSNDGSTYYADSVKGRFTISRDNAKNTVYLQMNSLKAEDTAVYYCNKDVWDGYDWPEFDYWGQGTQVTVSS,low polyreactivity
5,QVQLVESGGGLVQAGGSLRLSCAASGSTLVYNDMGWYRQAPGKEREFVAAIRSNDGSTYYADSVKGRFTISRDNAKNTVYLQMNSLKPEDTAVYYCNARNQVYKIYYSDYRRYDYWGQGTQVTVSS,low polyreactivity
6,QVQLVESGGGLVQAGGSLRLSCAASGSTLVYYDMGWYRQAPGKERELVATITGTDSAYYAVSVKGRFTISRDNAMNTVYLQMNRLKPEDTADCAADRAASRADYEYWGQGTQVTVSS,low polyreactivity
7,QVQLVESGGGLVQAGGSLRLSCAASGSTLWIYAMGWYRQAPGKERELVAAISWSTGRTYYADSVKGRFTISRDNAKNTVYLQMNSLKPVDTAVYYCNAGPQHNTLKLFYYWGQGTQVTVSS,low polyreactivity
8,QVQLVESGGGLVQAGGSLRLSCAASGSTLWLYAMGWYRQAHGKERELVAVISNSGSTYYAESVKGRFTISRDNAKNTVYLQMNSLKPEDTAVYSCNKDGGGDSYWYDYWGQGTQVTVSS,low polyreactivity
9,QVQLVESGGGLVQAGGSLRLSCAASGSTLWYNAMGWYRQAPGKERELVATITAGGGSTYYADSVKGRFTISRDNAKNTVYLQMNSLKPEDTAVYYCATPVASVTGYDYWGQGTQVTVSS,low polyreactivity
10,QVQLVESGGGLVQAGGSLRLSCAASGSTLWYNAMGWYRQGPGKERELVASITSDGGSSTYADSVKGRFTISRDNAKYTVYLQMNSLKPEDTAVYYCAADWPIVQYDYWGQGTQVTVSS,low polyreactivity
11,QVQLVESGGGLVQAGGSLRLSCAASGSTLYCNAMGWYRQAPGKERELVAAISRSGGSTYYADSVKGRFTISRDNAKKTVYLQMNSLKPEDTAVYYCAARRYVPHTEYYYWGQGTQGTVSS,low polyreactivity
12,QVQLVESGGGLVQAGGSLRLSCAASGSTLYFYAMGGYRQAPGKERELVADITWSGGSTYYADSVKGRFTISRDNAKNTVYLQMNSLKPEDTAVYYCNADDWSTYWYGYPGYVYWGQGTQVTVSS,high polyreactivity
13,QVQLVESGGGLVQAGGSLRLSCAASGSTLYGNVMGWYRQAPGKERELVATINRGGSTNYADSVKGRFTISRDNAKNNVYLQMNSLKPEDTAVYYCAADYYGYWYDYEGDHWGQGTQVTVSS,low polyreactivity
14,QVQLVESGGGLVQAGGSLRLSCAASGSTLYHNAMGWYRQAPGKERELVAIINYSGDNTYYADSVKGRFTISRDNAKNTVFLQMNSLKPEDTAVYYCAADLYERGRQAWQYDYWGQGTQVTVSS,low polyreactivity
15,QVQLVESGGGLVQAGGSLRLSCAASGSTLYHYDMGWYRQAPGKERELVAAITTSGDSTYYADSVKGRFTISRDNAKNTVYLQMNSLKPEDTAVYYCNADVFKTVFYIDRYYYWGQGTQVTVSS,low polyreactivity
16,QVQLVESGGGLVQAGGSLRLSCAASGSTLYIYAMGWYRQAPGKERELVAAITSSTGSTYADSVKGRFTISRDNAKNTVYLQMNSLKPEDTAVFVCNAGGPLQPYDYWGQGTQVTVSS,low polyreactivity
17,QVQLVESGGGLVQAGGSLRLSCAASGSTLYPYAMGWYRQAPGKERELVAVITKSGGRTYYADSVKGRFTISRDNAKNTVYLQMNSLKPEDTAVYYCAAKSTYGRLGGDSWGQGTQVTVSS,high polyreactivity
18,QVQLVESGGGLVQAGGSLRLSCAASGSTLYRNAMGWYRQAPGKERELVAAINYRGTRTYYADSVKGRFTISRDNAKNTVYLQMNSLKPEDTAVYYCAKDYSQFVTYPYDYWGQGTQVTVSS,low polyreactivity
19,QVQLVESGGGLVQAGGSLRLSCAASGSTLYWYAMGWYRQAPGKERELVAVITSSGVSTYYADSVKGRFTISRDNAKNTVYLQMNSLKPEDTAVYYCNAKWYGWQRGTVKYDYWGQGTQVTVSS,low polyreactivity
20,QVQLVESGGGLVQAGGSLRLSCAASGSTLYYNAMGWYRQAPGKERELVAAITSGGSTSYADSVKGRFTISRDNAKNTVSFQMYSLKPEDTAVYYCAAVFYRRFDNWGQGTQVTVSS,low polyreactivity
21,QVQLVESGGGLVQAGGSLRLSCAASGSTNGRYAMGWYRQAPGKERELVAAISYSGGSTYYADTVKGRFTISRDNAKNTVYLQMNSLKPEDTAVYYCAAQYVRKYRVSRGYNYWGQGTQVTVSS,high polyreactivity
